{"source": "patent US12565665B2", "about": "“Compositions and methods for controlled mRNA translation and stability” (TRUSTEES OF BOSTON UNIVERSITY, priority 2022, dated 2026)", "molecules": {"B1": {"name": "dual-input iADAR: N-terminal BAD, ALFA-PE at 5' RNA binding site, ADAR2-DD (F697Y), tandem AlfaNb and Bcl-xL at C-terminus (protein)", "chain": "MASNFTQFVLVDNGGTGDVTVAPSNFANGIAEWISSNSRSQAYKVTCSVRQSSAQNRKYTIKVEVPKGAWRSYLNMELTIPIFATNSDCELIVKAMQGLLKDGNPIPSAIAANSGIYGGSGSGAGSGSPAGGGAPGSGGGSTGAPPNLWAAQRYGRELRRMSDEFVDSFKKASQLHLPQVLADAVSRLVLGKFGDLTDNFSSPHARRKVLAGVVMTTGTDVKDAKVISVSTGTKCINGEYMSDRGLALNDCHAEIISRRSLLRFLYTQLELYLNNKDDQKRSIFQKSERGGFRLKENVQFHLYISTSPCGDARIFSPHEPILEEPAASGSGPGRLEEELRRRLSPGTGDRHPNRKARGQLRTKIESGQGTIPVRSNASIQTWDGVLQGERLLTMSCSDKIARWNVVGIQGSLLSIFVEPIYFSSIILGSLYHGDHLSRAMYQRISNIEDLPPLYTLNKPLLSGISNAEARQPGKAPNFSVNWTVGDSAIEVINATTGKDELGRASRLCKHALYCRWMRVHGKVPSHLLRSKITKPNVYHESKLAAKEYQAAKARLFTAFIKAGLGAWVEKPTEQDQYSLTGSGGTAEVQLQESGGGLVQPGGSLRLSCTASGVTISALNAMAMGWYRQAPGERRVMVAAVSERGNAMYRESVQGRFTVTRDFTNKMVSLQMDNLKPEDTAVYYCHVLEDRVDSFHDYWGQGTQVTVSSGAGSGASSNRELVVDFLSYKLSQKGYSWSQFSDVEENRTEAPEGTESEMETPSAINGNPSWHLADSPAVNGATGHSSSLDAREVIPMAAVKQALREAGDEFELRYRRAFSDLTSQLHITPGTAYQSFEQVVNELFRDGVNWGRIVAFFSFGGALCVESVDKEMQVLVSRIAAWMATYLNDHLEPWIQENGGWDTFVELYGNNGSSELIKENMHMKLYMEGTVDNHHFKCTSEGEGKPYEGTQTMRIKVVEGGPLPFAFDILATSFLYGSKTFINHTQGIPDFFKQSFPEGFTWERVTTYEDGGVLTATQDTSLQDGCLIYNVKIRGVNFTSNGPVMQKKTLGWEAFTETLYPADGGLEGRNDMALKLVGGSHLIANIKTTYRSKKPAKNLKMPGVYYVDYRLERIKEANNETYVEQHEVAVARYCDLPSKLGHKLN"}}, "key": {"[1]": {"system": "editable stop codons", "assay": "Transfection of in vitro transcribed iADAR mRNA circuits, flow cytometry (mNeonGreen positive cells)", "type": "cell-based, human", "details": "100 ng mRNA; positive = greater than top 1% of non-transfected cells; ~48 hours", "protocol": "In this case, the dADAR and ADAR constructs serve as negative and positive controls respectively. For the BAD(V) construct, cells only express mNeonGreen if A-1331852 is present during the transfection (see e.g., FIG. 61B).\nTo test this, the 3′ end of the plasmid was subsequently digested using Pmel, a DNA clean-up was performed, ARCA-capped mRNA was transcribed with T7 polymerase, the remaining DNA were digested with DNAse I, and a poly-A tail was added with E. coli Poly(A) Polymerase (all reagents and protocols from NEW ENGLAND BIO's HiScribe® T7 ARCA mRNA Kit (with tailing)). 70,000 HEK293FT cells were then transfected in suspension with 100 ng of each mRNA construct using Lipofectamine™ MessengerMAX™ Transfection Reagent. Cells were also treated with either DMSO or 1 μM of A-1331852. ˜48 hours after transfection, cells were analyzed by flow cytometry. mNeonGreen positive cells were determined as greater than the top 1% of gated non-transfected HEK cells (NT)."}, "[2]": {"target": "NS3a-genotype 1b (Hepatitis C virus genotype 1b, UniProt P26662)", "details": "disrupted by NS3a-targeting drugs; read-out: affinity of basal complex; cited from earlier work"}, "[3]": {"system": "4×UAG MS2 reporter", "assay": "4×UAG MS2 reporter co-transfected with iADAR variants, flow cytometry", "type": "cell-based, human", "details": "48 hours, n=3", "protocol": "HEK293FT cells were co-transfected with the dual-input iADAR, the 4×UAG-MS2 reporter, and either EGFP(R96M) or EGFP(R96M)-AlfaTag on day 0. At the time of transfection, 500 nM of A-1331852 or DMSO was added to their respective conditions. 48 hours after transfection, cells were lifted and run via flow cytometry. The median mCherry to mNeonGreen ratio was computed for transfected cells were gated by BFP expression and mCherry expression. The experiment was then analyzed via one-way ANOVA (n=3 transfected cell populations per condition).\nHEK293FT cells were co-transfected with the 4×UAG MS2 reporter and either an MCP-ADAR containing a peptide insertion at the 5′ RNA binding site (see e.g., FIG. 34b, Pep), grazoprevir iADAR (Pep-NS3) or a mutant version of the iADAR (Pep-NS3 (K690R)). At the time of transfection, 3 μM of DMSO or grazoprevir was added. 48 hours after transfection, cells were lifted and run via flow cytometry. […] The experiment was then analyzed via two-way ANOVA (n=3 transfected cell populations per condition).\nTo test this, LINC-ADAR constructs were created with WT, L699G, or F697Y mutations (see e.g., FIG. 35b) and HEK293FT cells were co-transfected with them and the 4×UAG-MS2 reporter in the presence of 2 μM grazoprevir or DMSO vehicle. 48 hours after transfection and drug treatment, cells were lifted and analyzed by flow cytometry. […]"}}}
{"molecule": "MCP_ADAR2-DD(E488Q)_mCherry_FLAG_P2A_T2A_loop(UAG-UAG)_MS2(C)_HaloTag_loop(UAG-UAG)_MS2(C)_P2A_T2A_HA_mNeonGreen(M10K) [ADAR mRNA]", "values": [{"measurement": "population of mNeonGreen positive cells", "setting": "[1]", "result": "significant population of mNeonGreen positive cells"}]}
{"molecule": "apo NS3a reader peptide, SEQ ID NO: 261, GELDELVYLLDGPGYDPIHSD [ANR]", "values": [{"measurement": "Kd", "setting": "[2]", "result": 10, "unit": "nM"}]}
{"molecule": "MCP_ADAR2-DD(E396A & E488Q)_mCherry_FLAG_P2A_T2A_loop(UAG-UAG)_MS2(C)_HaloTag_loop(UAG-UAG)_MS2(C)_P2A_T2A HA_mNeonGreen(M10K) [dADAR mRNA]", "values": [{"measurement": "population of mNeonGreen positive cells", "setting": "[1]", "result": "insignificant population"}]}
{"molecule": "B1", "values": [{"measurement": "median relative fluorescence with both A-1331852 and EGFP(R96M)-AlfaTag, fold greater than AlfaTag alone", "setting": "[3]; 500 nM of A-1331852", "result": "~4.6", "unit": "×"}, {"measurement": "median relative fluorescence with AlfaTag and DMSO vs negative condition or A-1331852 treatment", "setting": "[3]; one-way ANOVA", "result": "significantly higher"}]}
